Assay results: patent publication US5736143, “Anti-inflammatory, tolerogenic and immunoinhibiting properties of carbohydrate binding-peptides” (Alberta Research Council, dated 1998)
No end group written: not given here. *: point of attachment. Biotin = O=C1N[C@H]2[C@H](CS[C@H]2CCCCC(=O)*)N1

B2: fetuin (other)
chain: IPLDPVAGYKEPACDDPDTEQAALAAVDYINKHLPRGYKHTLNQIDSVKVWPRRPTGEVYDIEIDTLETTCHVLDPTPLANCSVRQQTQHAVEGDCDIHVLKQDGQFSVLFTKCDSSPDSAEDVRKLCPDCPLLAPLNDSRVVHAVEVALATFNAESNGSYLQLVEISRAQFVPLPVSVSVEFAVAATDCIAKEVVDPTKCNLLAEKQYGFCKGSVIQKALGGEDVRVTCTLFQTQPVIPQPQPDGAEAEAPSAVPDAAGPTPSAAGPPVASVVVGPSVVAVPLPLHRAHYDLRHTFSGVASVESSSGEAFHVGKTPIVGQPSIPGGPVRLCPGRIRYFKI
modifications: sialylated glycans (multiple copies of the αNeu5Ac(2→3)βGal(1→4)βGlc- structure)

How the values were obtained:
[1] = target: pertussis toxin (Bordetella pertussis) (UniProt P04977)
[2] = target: fetuin (Bos taurus (Bovine)) (UniProt P12763); experiment: inhibition ELISA; competitor ACS2P1-biotin on coated fetuin; peptide 5520 µM
[3] = target: fetuin (Bos taurus (Bovine)) (UniProt P12763); experiment: inhibition ELISA; competitor MAL-biotin on coated fetuin; peptide 4.4 mg/ml (repeats Table II)
[4] = target: asialofetuin (Bos taurus (Bovine)) (UniProt P12763); experiment: inhibition ELISA; competitor ACS2P1-biotin on coated asialofetuin; peptide 5520 µM
[5] = target: fetuin (Bos taurus (Bovine)) (UniProt P12763); experiment: inhibition ELISA; competitor WGA-biotin on coated fetuin; peptide 4.4 mg/mL
[6] = target: fetuin (Bos taurus (Bovine)) (UniProt P12763); experiment: inhibition ELISA; competitor PT-biotin on coated fetuin; peptide 4.4 mg/mL
[7] = target: fetuin (Bos taurus (Bovine)) (UniProt P12763); experiment: inhibition ELISA; competitor PT-biotin on coated fetuin; peptide 4.4 mg/ml (repeats Table II)
[8] = target: asialofetuin (Bos taurus (Bovine)) (UniProt P12763); experiment: inhibition ELISA; competitor PT-biotin on coated asialofetuin; peptide 4.4 mg/mL
[9] = target: fetuin (Bos taurus (Bovine)) (UniProt P12763); experiment: inhibition ELISA; competitor SNA-biotin on coated fetuin; peptide 4.4 mg/mL
[10] = target: fetuin (Bos taurus (Bovine)) (UniProt P12763); experiment: inhibition ELISA; competitor WGA-biotin on coated fetuin; peptide 4.4 mg/ml (repeats Table II)
[11] = target: fetuin (Bos taurus (Bovine)) (UniProt P12763); experiment: inhibition ELISA; competitor SNA-biotin on coated fetuin; peptide 4.4 mg/ml (Table II prints -2 ± 2)
[12] = target: fetuin (Bos taurus (Bovine)) (UniProt P12763); experiment: inhibition ELISA; competitor MAL-biotin on coated fetuin; peptide 4.4 mg/mL
[13] = target: αNeuAc(2-3)βGal(1-4)βGlcNAc-BSA with (1-3) αFuc (bovine) (UniProt P02769); experiment: direct ELISA, 0.5 µg biotinylated peptide on BSA conjugate coated at 50 µg/mL
[14] = target: αNeuAc(2-6)βGal(1-4)βGlcNAc-BSA (bovine) (UniProt P02769); experiment: as above
[15] = target: αNeuAc(2-3)βGal(1-3)βGlcNAc-BSA (bovine) (UniProt P02769); experiment: as above
[16] = target: αNeuAc(2-3)βGal(1-4)βGlcNAc-BSA (bovine) (UniProt P02769); experiment: as above
[17] = target: αNeuAc(2-3)βGal(1-3)βGlcNAc-BSA with (1-4) αFuc (bovine) (UniProt P02769); experiment: as above
[18] = target: fetuin (Bos taurus (Bovine)) (UniProt P12763); experiment: inhibition ELISA; competitor SNA-biotin on coated fetuin; peptide 1.0 mg/mL
[19] = target: fetuin (Bos taurus (Bovine)) (UniProt P12763); experiment: inhibition ELISA; competitor PT-biotin on coated fetuin
[20] = target: fetuin (Bos taurus (Bovine)) (UniProt P12763); experiment: inhibition ELISA; competitor WGA-biotin on coated fetuin
[21] = target: fetuin (Bos taurus (Bovine)) (UniProt P12763); experiment: inhibition ELISA; competitor PT-biotin on coated fetuin; peptide 1.0 mg/mL
[22] = target: fetuin (Bos taurus (Bovine)) (UniProt P12763); experiment: inhibition ELISA; competitor MAL-biotin on coated fetuin; peptide 1.0 mg/mL
[23] = target: fetuin (Bos taurus (Bovine)) (UniProt P12763); experiment: inhibition ELISA; competitor WGA-biotin on coated fetuin; peptide 1.0 mg/mL
[24] = target: αNeuAc(2-3)βGal(1-4)βGlcNAc-BSA (bovine, UniProt P02769, conjugated carbohydrate αNeuAc(2-3)βGal(1-4)βGlcNAc-); experiment: direct ELISA, 0.1 µg biotinylated peptide on BSA conjugate coated at 50 µg/mL
[25] = target: αNeuAc(2-3)βGal(1-3)βGlcNAc-BSA (bovine, UniProt P02769, conjugated carbohydrate αNeuAc(2-3)βGal(1-3)βGlcNAc-); experiment: as above
[26] = target: αNeuAc(2-6)βGal(1-4)βGlcNAc-BSA (bovine, UniProt P02769, conjugated carbohydrate αNeuAc(2-6)βGal(1-4)βGlcNAc-); experiment: as above
[27] = target: αNeuAc(2-3)βGal(1-3)βGlcNAc-BSA with (1-4) αFuc (bovine, UniProt P02769, conjugated carbohydrate αNeuAc(2-3)βGal(1-3)[αFuc(1-4)]βGlcNAc-); experiment: as above
[28] = target: αNeuAc(2-3)βGal(1-4)βGlcNAc-BSA with (1-3) αFuc (bovine, UniProt P02769, conjugated carbohydrate αNeuAc(2-3)βGal(1-4)[αFuc(1-3)]βGlcNAc-); experiment: as above
[29] = target: T1, asialoagalactofetuin (Bos taurus (Bovine), UniProt P12763, glycans without sialic acid and galactose (asialoagalacto-)); experiment: direct ELISA, 10 µg/ml biotinylated peptide on glycoprotein coated at 3 µg/ml
T1 sequence: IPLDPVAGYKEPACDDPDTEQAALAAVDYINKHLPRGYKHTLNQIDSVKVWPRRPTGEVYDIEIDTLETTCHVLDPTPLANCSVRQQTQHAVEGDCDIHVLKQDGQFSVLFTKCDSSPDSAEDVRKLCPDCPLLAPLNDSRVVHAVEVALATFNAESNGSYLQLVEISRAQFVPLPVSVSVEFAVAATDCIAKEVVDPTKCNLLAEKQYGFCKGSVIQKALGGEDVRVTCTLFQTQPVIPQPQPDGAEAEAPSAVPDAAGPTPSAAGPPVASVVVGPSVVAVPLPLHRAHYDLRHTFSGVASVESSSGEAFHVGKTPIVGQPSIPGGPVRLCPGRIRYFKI

[30] = target: T2, asialofetuin (Bos taurus (Bovine), UniProt P12763, glycans without sialic acid (asialo-)); experiment: as above
T2 sequence: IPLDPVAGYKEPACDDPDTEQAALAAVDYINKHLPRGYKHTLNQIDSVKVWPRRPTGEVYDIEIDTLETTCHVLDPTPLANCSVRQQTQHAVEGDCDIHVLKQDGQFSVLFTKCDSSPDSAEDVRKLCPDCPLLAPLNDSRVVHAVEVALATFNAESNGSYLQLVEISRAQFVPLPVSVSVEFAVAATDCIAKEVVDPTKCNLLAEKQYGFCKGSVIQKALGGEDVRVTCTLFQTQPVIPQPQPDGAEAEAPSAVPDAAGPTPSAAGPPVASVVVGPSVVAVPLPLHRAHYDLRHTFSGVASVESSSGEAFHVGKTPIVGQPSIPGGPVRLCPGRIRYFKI

[31] = target: T3, pertussis toxin (Bordetella pertussis, UniProt P04977); experiment: inhibition ELISA; fetuin against ACS2P1-biotin on immobilised PT
[32] = target: T3, pertussis toxin; experiment: cell-based or functional assay
[33] = target: B2; experiment: inhibition ELISA; competitor WGA-biotin on coated fetuin
[34] = target: B2; experiment: inhibition ELISA; competitor ACS2P1-biotin on coated fetuin; concentration giving -50% (called IC50 in paragraph 228, n=2)

For SPYGRC (peptide), the Maximal Inhibitory Concentration for Greater than 50% Inhibition (CHO cell clumping) [1] was 480 pg/mL.

In the case of “SPYGRC (peptide; other documents disagree on this pair)”, the percent change in binding activity [2] is reported as -24%, the % changes in binding activity [3] is reported as -16% and the percent change in binding activity [4] is reported as -54%. It also gave a percent change in binding activity [5] of 7%, a percent change in binding activity [6] of 34% and a % changes in binding activity [7] of 34%. For the same molecule, the percent change in binding activity [8] was 7%, the percent change in binding activity [9] was -2% and the % changes in binding activity [10] was 7%. The % changes in binding activity [11] was -2% and the percent change in binding activity [12] was -16%.

With “SPYGRC-biotin (peptide; other documents disagree on this pair)” the % binding relative to fetuin [13] was 120%, the % binding relative to fetuin [14] was 122% and the % binding relative to fetuin [15] was 97%. The % binding relative to fetuin [16] was 120% and the % binding relative to fetuin [17] was 103%.

Work on WGA(62-73) (peptide) yielded a percent change in binding activity [18] of -3%, an IC50 [19] of 1500 µM and an IC50 [20] of 3400 µM. The percent change in binding activity [21] was -32%, the percent change in binding activity [22] was -1% and the percent change in binding activity [23] was -9%.

B1: ACS2P1-biotin (peptide)
peptide: PQEQITQHGSPYGRC
modifications: biotinylated at the terminal proline; C-terminal -CO--NH2; acetylated (position not given)
In the case of B1, the “% binding relative to fetuin” value [24] is reported as 117%, the “% binding relative to fetuin” value [25] is reported as 70% and the “% binding relative to fetuin” value [26] is reported as 94%. For the same molecule, the “% binding relative to fetuin” value [27] was 84%, the “% binding relative to fetuin” value [28] was 84% and the “% binding relative to fetuin” value [29] was 93%. The “% binding relative to fetuin” value [30] was 45%.

B2 gave an IC50 [31] of 50 µM.

VAPGIVIPPKALFTQQGGAYGRC [S3P2] was tested, and the “Maximal Inhibitory Concentration for Greater than 50% Inhibition (CHO cell clumping)” value [32] was greater than 300 ng/mL.

For PKALFTQQGGAYGRC [S3P1], the “Maximal Inhibitory Concentration for Greater than 50% Inhibition (CHO cell clumping)” value [32] was greater than 300 ng/mL.

With STPGIVIPPQEQITQHGSPYGRC [S2P2] the “Maximal Inhibitory Concentration for Greater than 50% Inhibition (CHO cell clumping)” value [32] was greater than 300 ng/mL.

RLLASTNSRLCAVFVRDG [S3P9a] was tested, and the “Maximal Inhibitory Concentration for Greater than 50% Inhibition (CHO cell clumping)” value [32] was greater than 300 ng/mL.

Molecule PQEQITQHGSPYGRC (also: acetylated, site not given here) [ACS2P1] has an IC50 [33] of 3250 µM and an IC50 [34] of 4.1 µM.
